Measured values: patent publication EP4818204A1 (Nanjing Leads Biolabs Co., Ltd., dated 2026)

T1: human GDF1 protein (human, UniProt P27539 254-372, limits assumed)
T1 construct: Bought
T1 sequence (looked up): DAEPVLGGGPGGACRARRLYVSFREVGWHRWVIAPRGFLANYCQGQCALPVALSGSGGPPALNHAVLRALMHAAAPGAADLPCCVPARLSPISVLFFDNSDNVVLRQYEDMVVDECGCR

T2: human GDF2 protein (human, UniProt Q9UK05 320-429)
T2 construct: Bought
T2 sequence (looked up): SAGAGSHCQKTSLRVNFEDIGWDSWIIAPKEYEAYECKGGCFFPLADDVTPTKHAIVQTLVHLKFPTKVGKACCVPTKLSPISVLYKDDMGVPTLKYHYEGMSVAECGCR

T3: human GDF3 protein (human, UniProt Q9NR23 251-364, limits assumed)
T3 construct: Bought
T3 sequence (looked up): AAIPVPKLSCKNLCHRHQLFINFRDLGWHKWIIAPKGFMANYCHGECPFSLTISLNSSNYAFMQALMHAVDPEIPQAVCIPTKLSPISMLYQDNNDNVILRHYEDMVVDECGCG

T4: human BMP4 protein (human, UniProt P12644 293-408)
T4 construct: Bought
T4 sequence (looked up): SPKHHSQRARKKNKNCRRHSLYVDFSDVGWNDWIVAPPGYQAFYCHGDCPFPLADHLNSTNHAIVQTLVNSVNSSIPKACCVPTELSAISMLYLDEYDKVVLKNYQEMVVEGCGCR

T5: human GDF11 protein (human, UniProt O95390 299-407)
T5 construct: Bought
T5 sequence (looked up): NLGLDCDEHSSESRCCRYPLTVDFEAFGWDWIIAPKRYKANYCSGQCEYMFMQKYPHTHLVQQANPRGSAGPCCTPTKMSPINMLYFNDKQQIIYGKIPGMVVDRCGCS

T6: human GFRα1 protein (human, UniProt P56159 25-429, limits assumed)
T6 construct: Bought
T6 sequence (looked up): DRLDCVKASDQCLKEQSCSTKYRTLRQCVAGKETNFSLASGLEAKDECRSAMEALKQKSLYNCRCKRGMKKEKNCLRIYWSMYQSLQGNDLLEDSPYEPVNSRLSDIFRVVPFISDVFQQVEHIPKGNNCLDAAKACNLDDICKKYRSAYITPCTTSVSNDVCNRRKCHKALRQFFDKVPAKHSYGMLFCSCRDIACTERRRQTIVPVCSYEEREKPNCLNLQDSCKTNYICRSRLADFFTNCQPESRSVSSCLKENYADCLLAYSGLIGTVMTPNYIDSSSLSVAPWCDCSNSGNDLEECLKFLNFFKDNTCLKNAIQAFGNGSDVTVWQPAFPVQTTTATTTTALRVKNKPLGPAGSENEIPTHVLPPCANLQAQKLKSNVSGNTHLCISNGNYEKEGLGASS

T7: human Activin A protein (human, UniProt P08476 311-426)
T7 construct: Bought; Activin A is by nature a dimer of inhibin beta A chains
T7 sequence (looked up): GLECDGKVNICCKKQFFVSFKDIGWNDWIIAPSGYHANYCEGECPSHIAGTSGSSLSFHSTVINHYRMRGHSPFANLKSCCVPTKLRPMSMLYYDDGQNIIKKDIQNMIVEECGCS

T8: human Activin B protein (human, UniProt P09529 293-407)
T8 construct: Bought; Activin B is by nature a dimer of inhibin beta B chains
T8 sequence (looked up): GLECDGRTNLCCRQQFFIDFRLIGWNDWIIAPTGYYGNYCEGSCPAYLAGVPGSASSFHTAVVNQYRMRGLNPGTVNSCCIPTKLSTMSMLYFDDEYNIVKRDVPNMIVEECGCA

T9: Human GDF15 protein (human, UniProt Q99988 197-308)
T9 construct: Natural GDF15 is said to be a disulfide-linked homodimer; also called Human-GDF15-his
T9 sequence: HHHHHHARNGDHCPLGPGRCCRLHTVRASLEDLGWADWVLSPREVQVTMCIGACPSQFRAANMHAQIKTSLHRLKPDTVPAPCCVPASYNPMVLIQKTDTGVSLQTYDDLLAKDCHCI

T10: Cynomolgus monkey GDF15 protein (cynomolgus monkey, UniProt G7PWZ3 193-308)
T10 construct: Bought protein (Kactus Biosystems GDF-CE115); also called Cynomolgus GDF15 protein; Cynomolgus-GDF15
T10 sequence: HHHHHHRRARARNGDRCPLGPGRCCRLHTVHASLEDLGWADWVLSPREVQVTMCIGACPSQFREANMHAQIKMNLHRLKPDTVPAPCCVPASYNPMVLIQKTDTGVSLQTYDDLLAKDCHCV

T11: Mouse GDF15 protein (mouse, UniProt Q9Z0J7 189-303)
T11 sequence: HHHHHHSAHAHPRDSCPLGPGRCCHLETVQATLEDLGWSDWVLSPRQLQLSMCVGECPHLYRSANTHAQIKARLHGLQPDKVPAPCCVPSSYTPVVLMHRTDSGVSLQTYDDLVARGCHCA


Tests used:
human GDF1 protein = biological target: T1, human GDF1 protein; assay: ELISA, coated protein
human GDF2 protein [1] = biological target: T2, human GDF2 protein; assay: ELISA, coated protein
human GDF3 protein = biological target: T3, human GDF3 protein; assay: ELISA, coated protein
human BMP4 protein [2] = biological target: T4, human BMP4 protein; assay: ELISA, coated protein
human GDF11 protein = biological target: T5, human GDF11 protein; assay: ELISA, coated protein
human TGFβ1 protein [3] = biological target: T12, human TGFβ1 protein (human, UniProt P01137 279-390); assay: ELISA, coated protein
T12 construct: Bought

human GFRα1 protein = biological target: T6, human GFRα1 protein; assay: ELISA, coated protein
human BMP2 protein [4] = biological target: T13, human BMP2 protein (human, UniProt P12643 283-396); assay: ELISA, coated protein
T13 construct: Bought

human Activin A protein [5] = biological target: T7, human Activin A protein; assay: ELISA, coated protein
human Activin B protein = biological target: T8, human Activin B protein; assay: ELISA, coated protein
human GDF2 protein [6] = biological target: T2, human GDF2 protein; assay: ELISA, coated protein, antibody at 4 µg/mL
human BMP4 protein [7] = biological target: T4, human BMP4 protein; assay: ELISA, coated protein, antibody at 4 µg/mL
human TGFβ1 protein [8] = biological target: T12, human TGFβ1 protein; assay: ELISA, coated protein, antibody at 4 µg/mL
human BMP2 protein [9] = biological target: T13, human BMP2 protein; assay: ELISA, coated protein, antibody at 4 µg/mL
human Activin A protein [10] = biological target: T7, human Activin A protein; assay: ELISA, coated protein, antibody at 4 µg/mL
Human GDF15 protein = biological target: T9, Human GDF15 protein; assay: BLI (Fortebio Octet), antibody on AHC sensor, GDF15 as analyte, 1:1 model
[11] = biological target: T10, Cynomolgus monkey GDF15 protein; assay: as above
Mouse GDF15 protein = biological target: T11, Mouse GDF15 protein; assay: as above

T13 sequence (P12643 283-396 limits assumed): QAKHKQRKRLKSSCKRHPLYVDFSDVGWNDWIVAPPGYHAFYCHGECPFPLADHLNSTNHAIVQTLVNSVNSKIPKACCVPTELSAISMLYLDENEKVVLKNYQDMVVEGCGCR
T12 sequence (P01137 279-390 limits assumed): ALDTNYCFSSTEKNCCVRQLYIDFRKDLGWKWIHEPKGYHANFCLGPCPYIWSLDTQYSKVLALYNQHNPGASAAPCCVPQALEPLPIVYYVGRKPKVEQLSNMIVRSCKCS

Row | binding result (human GDF1 protein) | binding result (human GDF2 protein [1]) | binding result (human GDF3 protein) | binding result (human BMP4 protein [2]) | binding result (human GDF11 protein) | binding result (human TGFβ1 protein [3]) | binding result (human GFRα1 protein) | binding result (human BMP2 protein [4]) | binding result (human Activin A protein [5]) | binding result (human Activin B protein) | OD value (human GDF2 protein [6]) [OD 450 nm-620 nm] | OD value (human BMP4 protein [7]) [OD 450 nm-620 nm] | OD value (human TGFβ1 protein [8]) [OD 450 nm-620 nm] | OD value (human BMP2 protein [9]) [OD 450 nm-620 nm] | OD value (human Activin A protein [10]) [OD 450 nm-620 nm] | Kd (Human GDF15 protein) [nM] | koff (Human GDF15 protein) [s⁻¹] | kon (Human GDF15 protein) [M⁻¹ s⁻¹] | Kd [11] [nM] | koff [11] [s⁻¹] | Binder | other results
1 | no binding (tested: 4 µg/mL) | no binding (tested: 4 µg/mL) | no binding (tested: 4 µg/mL) | no binding (tested: 4 µg/mL) | no binding (tested: 4 µg/mL) | no binding (tested: 4 µg/mL) | no binding (tested: 4 µg/mL) | no binding (tested: 4 µg/mL) | no binding (tested: 4 µg/mL) | no binding (tested: 4 µg/mL) | 0.0648 | 0.0411 | 0.0426 | 0.0683 | 0.0632 | 0.0515 | 4.87e-05 | 946000 | 0.231 | 6.13e-05 | Hu21H6D2 (antibody, human IgG1, kappa, V domains shown, Humanized form of murine 21H6D2; human IgG1 constant region with L234A, L235A, G237A and kappa light chain constant region; also called hu21H6D2-IgG1-mut(L234A,L235A,G237A)) VH: QVQLVQSGAEVKKPGASVKVSCKASGYTFTGYIMNWVRQAPGQRLEWMGDIDPYYGDAKYNQKFKGKVTITVDKSASTAYMELSSLRSEDTAVYYCARRDYDHGSFAYWGQGTLVTVSS VL: EIVLTQSPDFQSVTPKEKVTITCSASSSVNYMHWYQQKPDQSPKRLIYDTSKLASGVPSRFSGSGSGTDYTLTINSLEAEDAATYYCQQWSSNPPTFGQGTKLEIKR | kon [11]: 265000 M⁻¹ s⁻¹; Kd (Mouse GDF15 protein): 10.6 nM; koff (Mouse GDF15 protein): 0.00116 s⁻¹; kon (Mouse GDF15 protein): 110000 M⁻¹ s⁻¹
2 | no binding (tested: 4 µg/mL) | no binding (tested: 4 µg/mL) | no binding (tested: 4 µg/mL) | no binding (tested: 4 µg/mL) | no binding (tested: 4 µg/mL) | no binding (tested: 4 µg/mL) | no binding (tested: 4 µg/mL) | no binding (tested: 4 µg/mL) | no binding (tested: 4 µg/mL) | no binding (tested: 4 µg/mL) | 0.0678 | 0.0432 | 0.0437 | 0.0457 | 0.0577 | 0.0264 | 2.35e-05 | 887000 | 0.312 | 8.24e-05 | Hu19C4C7 (antibody, human IgG1, kappa, Humanized form of murine 19C4C7; human IgG1 constant region with L234A, L235A, G237A and kappa light chain constant region; also called hu19C4C7-IgG1-mut(L234A,L235A,G237A)) heavy: QVQLVQSGAEVKKPGSSVKVSCKASGYSFTGYIMNWVRQAPGQSLEWMGDIDPYYGGPNYNQKFQGRVTITVDKSTSTAYMELSSLRSEDTAVYYCSRRDYNYGSFAYWGQGTLVTVSSASTKGPSVFPLAPSSKSTSGGTAALGCLVKDYFPEPVTVSWNSGALTSGVHTFPAVLQSSGLYSLSSVVTVPSSSLGTQTYICNVNHKPSNTKVDKKVEPKSCDKTHTCPPCPAPEAAGAPSVFLFPPKPKDTLMISRTPEVTCVVVDVSHEDPEVKFNWYVDGVEVHNAKTKPREEQYNSTYRVVSVLTVLHQDWLNGKEYKCKVSNKALPAPIEKTISKAKGQPREPQVYTLPPSREEMTKNQVSLTCLVKGFYPSDIAVEWESNGQPENNYKTTPPVLDSDGSFFLYSKLTVDKSRWQQGNVFSCSVMHEALHNHYTQKSLSLSPGK light: QIVLTQSPATLSLSPGERATLSCRASSSVNYMHWYQQKPGQAPRPLIYATSNLATGIPARFSGSGSGTDYTLTISSLEPEDFAVYYCQQWSDNPPTFGQGTKLEIKRTVAAPSVFIFPPSDEQLKSGTASVVCLLNNFYPREAKVQWKVDNALQSGNSQESVTEQDSKDSTYSLSSTLTLSKADYEKHKVYACEVTHQGLSSPVTKSFNRGEC | kon [11]: 265000 M⁻¹ s⁻¹; Kd (Mouse GDF15 protein): 14.9 nM; koff (Mouse GDF15 protein): 0.00241 s⁻¹; kon (Mouse GDF15 protein): 162000 M⁻¹ s⁻¹
3 | no binding (tested: 4 µg/mL) | no binding (tested: 4 µg/mL) | no binding (tested: 4 µg/mL) | no binding (tested: 4 µg/mL) | no binding (tested: 4 µg/mL) | no binding (tested: 4 µg/mL) | no binding (tested: 4 µg/mL) | no binding (tested: 4 µg/mL) | no binding (tested: 4 µg/mL) | no binding (tested: 4 µg/mL) | 0.0644 | 0.0539 | 0.055 | 0.0538 | 0.0493 | < 0.001 | < 1e-07 | 573000 | < 0.001 | < 1e-07 | HuVHH43-3 (Fc fusion, also called huVHH43-IgG1-mut(L234A,L235A,G237A); VHH humanized anti-GDF15 antibody) heavy: QLQLVESGGGLVQPGGSLRLSCAASGHTYGMGWFRQAPGKAREIVSAISRSGSSTYYADSVKGRFTISRDNSKNTLYLQMNSLRAEDTAVYICGASTSALVPTTTGMYAYWGQGTRVTVSSEPKSSDKTHTCPPCPAPEAAGAPSVFLFPPKPKDTLMISRTPEVTCVVVDVSHEDPEVKFNWYVDGVEVHNAKTKPREEQYNSTYRVVSVLTVLHQDWLNGKEYKCKVSNKALPAPIEKTISKAKGQPREPQVYTLPPSREEMTKNQVSLTCLVKGFYPSDIAVEWESNGQPENNYKTTPPVLDSDGSFFLYSKLTVDKSRWQQGNVFSCSVMHEALHNHYTQKSLSLSPGK | kon [11]: 205000 M⁻¹ s⁻¹; Kd (Mouse GDF15 protein): 1.25 nM; koff (Mouse GDF15 protein): 6.58e-05 s⁻¹; kon (Mouse GDF15 protein): 52500 M⁻¹ s⁻¹
